Assay results from paper PMC2710519.

System: RSC complex (17 subunits, 1.197 MDa);histone octamer (recombinant) (yeast;Xenopus laevis)
Assay: AFM
Conditions: RSC:mononucleosome 1:3, AFM: 1 nM RSC with 21 nM 1 kbp DNA without ATP, or RSC:mononucleosome 1:3 for 30 min with or without 4 mM ATP or ATPgS, buffer, salt, pH and temperature not in …

601 mononucleosome with 236 and 252 bp arms (240/240, 635 bp)
binding signal (% of substrate RSC-bound) (4 mM ATP, 50% of RSC complexes nucleosome-bound): 32
binding signal (% of substrate RSC-bound) (4 mM ATPgS, 76% of RSC complexes on bare DNA arms): 52
binding signal (% of substrate RSC-bound) (no ATP, 72% of RSC complexes on bare DNA arms): 25
